Experimental findings from patent publication US8227408B2, “Leptin as an anti-amyloidogenic biologic and methods for delaying the onset and reducing Alzheimer's disease-like pathology” (Neurotez, Inc., priority 2005, dated 2012) are described below.

Assay [1] has as its system Neuro2a cells stably transfected with hyg-sa134 (SEAP-APP). Put plainly: Aβ production by Neuro2a cells stably transfected with hyg-sa134 (total Aβ in media, sandwich ELISA). The format is cell-based, mouse. On the procedure:
(§1) Neuro2a (mouse neuroblastoma) stably transfected with hyg-sa134, a pcDNA3.1/Hygro plasmid (Invitrogen, CA) modified to express a fusion protein of secreted alkaline phosphatase (SEAP) and a fragment of APP consisting of the C-terminal 134 amino acids (“CAPP134”) (SEQ ID NO:10) were maintained in culture as described ([…]) in the presence of 400 μg/ml of hygromycin. SEQ ID NO: 11 is the DNA sequence of the entire hygsa134 vector, which was derived from the pcDNA3.1/Hygro vector by genetic manipulation to insert the DNA sequences for SEAP and CAPP134. The SEAP-CAPP cDNA insert from hyg-sa134 was also subcloned into an adenoviral vector using the Adeno Vator system (Qbiogene, Calif.). The DNA sequence for SEAP (corresponding to nucleotides 981-2441 of hyg-sa134) (SEQ ID NO: 9) is located 5′ to the DNA sequence (SEQ ID NO: 12) coding for CAPP134 (SEQ ID NO: 10).
(§2) SY5Y and hyg-sa134-Neuro2a cells were treated at 80% confluency (see below). Primary neural cultures from mouse embryos were allowed to grow for 6-12 days following plating and prior to viral infection and treatments.
About 5 μg/ml or about 10 μg/ml water-soluble cholesterol was added to cultures for 2 or 5 hours. Water soluble cholesterol (Sigma-Aldrich, MO) is a solution made of cholesterol balanced with cyclodextrin CDX (40 mg cholesterol per gr CDX). For comparison, cultures were treated with the equivalent amount of the resin alone, which leads to depletion of cholesterol in the cultures (Simons et al., Proc Natl Acad Sci USA. 95:6460-4 (1998)).
About 100 ng/ml or about 400 ng/ml leptin (Harbor-UCLA, CA), was added in cell culture medium for 2 or 5 h. Cells were approximately 80% confluent at the time of treatment. Peptide YY (3-36) (Phoenix Pharmaceuticals, Inc., CA), and CNTF (Sigma-Aldrich, Mo.) were added at about 25 μM or 150 μM for the same incubation periods. TOFA, etomoxir (Research Biochemicals International, MA) and cerulenin (Sigma-Aldrich, Mo.) were used as described below.
For the determination of Aβ peptide several methodologies also were used. SY5Y cells in culture were metabolically labeled with ^35S-[Met] as described (Figueiredo-Pereira et al. J Neurochem. 72:1417-22 (1999)), followed by immunoprecipitation, resolution of the immunoprecipitates on SDS-PAGE, autoradiography, and densitometric analysis of the autoradiogram. Neuro2a cells were stably transfected with hyg-sa134 (K. Sambamurti, S. Carolina Medical Center, SC) and Aβ40 (SEQ ID NO: 4) plus Aβ42 (SEQ ID NO: 5) plus Aβ43 (SEQ ID NO: 6) (Total Aβ) in the medium then was quantified by sandwich ELISAs developed with 4G8 and 6 ε10 monoclonal antibodies (Signet, Mass.) as described (Figueiredo-Pereira et al., J Neurochem. 72:1417-22 (1999)). Commercially available ELISA kits (KMI Diagnostics, MN) were used for the separate determination of Aβ40 (SEQ ID NO:4) and Aβ42/43 (SEQ ID NO:5/SEQ ID NO:6) in formic acid extracts of mice brains. Flotillin was detected using monoclonal anti-flotillin-1 antibodies (BD Biosciences, CA). Actin was detected using monoclonal anti-actin antibodies (Research Diagnostics, Inc, NJ).
Human (SYSY) or mouse neuroblastoma cell-lines (Neuro2a) commonly are used to study amyloid β metabolism in vitro. Neuro2a cells are stably transfected with hyg-sa134 (SEQ ID NO: 11), a plasmid driving the expression of a recombinant fusion protein containing the human C-terminal fragment of APP of about 134 amino acids, CAPP134 (SEQ ID NO: 10). Here, 5Y5Y or Neuro2a cultures were treated for 2 or 5 h with about 100 ng/ml or about 400 ng/ml leptin (FIG. 4a, 4b). Similarly, primary neurons from embryonic rat brain, infected with an adenovirus to direct the expression of CAPP134 (SEQ ID NO:10) also were treated according to the same regimen. […]
A general note: ELISA stands for enzyme-linked immunosorbent assay.

The test system of assay [2] is primary embryonic rat neurons infected with adenovirus. Description: Aβ production by primary embryonic rat neurons infected with adenovirus (SEAP-APP). Format: cell-based. The settings on record: total Aβ in conditioned media, 5 h; concentration (TOFA 200 μM, cerulenin 200 μM, etomoxir 40 μM, peptide YY (3-36) 25 μM, CNTF 25 μM, leptin 400 ng/ml); mean ± SEM; NS = non-significant.
Description: Cell cultures, Treatments, Antibodies and Immunoassays. SY5Y cells (human neuroblastoma) were maintained in culture as described (Johnsingh et al., FEBS Lett. 465:53-8 (2000)). Primary neural cultures were obtained from ε16 rat embryonic cortex, as described (Shimoda et al., 1992. Brain Res. 586:319-31 (1992)). These were either grown as mixed cultures (Johnsingh et al., FEBS Lett. 465:53-8 (2000)) or grown under conditions that favor the isolation and proliferation of astrocytes (Takeshima et al., J Neurosci. 14:4769-79 (1994)).
as §1, §2
Human (SYSY) or mouse neuroblastoma cell-lines (Neuro2a) commonly are used to study amyloid β metabolism in vitro. Neuro2a cells are stably transfected with hyg-sa134 (SEQ ID NO: 11), a plasmid driving the expression of a recombinant fusion protein containing the human C-terminal fragment of APP of about 134 amino acids, CAPP134 (SEQ ID NO: 10). Here, 5Y5Y or Neuro2a cultures were treated for 2 or 5 h with about 100 ng/ml or about 400 ng/ml leptin (FIG. 4a, 4b). Similarly, primary neurons from embryonic rat brain, infected with an adenovirus to direct the expression of CAPP134 (SEQ ID NO:10) also were treated according to the same regimen.

In a further assay the test system is β-secretase. Description: C99/C83 accumulation in SY5Y cells in presence of γ-secretase inhibitors (Western blot). As to conditions: 5 h. The format is cell-based, human.

B1: Leptin: peptide hormone controlling adaptive metabolic mechanisms to energy availability; leptin (Harbor-UCLA) in vitro, recombinant murine leptin in mice (protein, UniProt P41160 22-167, looked up)
Leptin: VPIQKVQDDTKTLIKTIVTRINDISHTQSVSAKQRVTGLDFIPGLHPILSLSKMDQTLAVYQQVLTSLPSQNVLQIANDLENLRDLLHLLAFSKSCSLPQTSGLQKPESLDGVLEASLYSTEVVALSRLQGSLQDILQQLDVSPEC
With B1, the “Aβ production / levels of Aβ in the media (in words)” value in assay [1] (2 or 5 h treatment) is “dose- and time-dependent decrease”. Further, the “levels of Aβ detected in the media (percentage of corresponding controls), leptin co-administered with cholesterol” value in assay [1] (5 h, highest concentrations of leptin, co-administered with cholesterol, FIG. 4b) stood at 150±4%. In addition, the “Neuro2a/SEAP-APP Aβ(% control)” value in assay [1] (total Aβ in conditioned media, 5 h, concentration (TOFA 200 μM, cerulenin 200 μM, etomoxir 40 μM, peptide YY (3-36) 25 μM, CNTF 25 μM, leptin 400 ng/ml), mean ± SEM, 4 experiments, NS = non-significant) is given as 56 ± 5 % control. Moreover, in assay [2], the “Neurons/SEAPP-APP Aβ (% control)” value worked out at 35 ± 4 % control. Further, in the assay on β-secretase (10 μM cholesterol in the presence of 400 ng/ml leptin), the “cholesterol-induced increase in C99” value is recorded as “abolished”. Further, the C99 level result with β-secretase (with L-685,458 (100 nM) or Z-VL-CHO (100 μM), 10 μM cholesterol or 400 ng/ml leptin alone) is reported as “also was observed in the absence of cholesterol”.
